Assay results: PMC5692578

Biological target: Mcm2-7 hexamer (S. cerevisiae) (UniProt P29469)
Assay: cryo-EM structure

Mcm2-7 hexamer, P29469;P24279;P30665;P29496;P53091;P38132
stoichiometry N: 2 hexamers
